In patent US20070178095A1:

Tests used:
Assay in all cases: ELISA, growth factor coated at 10 ug/ml, antibody at 10 ug/ml, mean of duplicate wells
[1] = molecular target: BMP-6 (R&D Systems 507-BP) (UniProt P22004)
[2] = molecular target: BMP-5 (R&D Systems 615-BM) (UniProt P22003)
[3] = molecular target: TGF-beta1 (Peprotech, Inc. 100-21R) (UniProt P01137)
[4] = molecular target: Activin B (R&D Systems 659-AB) (UniProt P09529)
[5] = molecular target: recombinant human GDF-11 (Peprotech, Inc., Cat. # 120-11, carrier-free) (human) (UniProt O95390)
Chain of recombinant human GDF-11 (Peprotech, Inc., Cat. # 120-11, carrier-free) (human) (O95390 299-407 limits assumed): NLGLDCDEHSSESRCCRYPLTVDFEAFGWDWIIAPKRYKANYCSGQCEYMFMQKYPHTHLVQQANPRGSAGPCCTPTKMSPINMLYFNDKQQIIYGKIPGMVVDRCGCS

[6] = molecular target: BMP-2 (R&D Systems 355-BEC/CF) (UniProt P12643)
Chain of BMP-2 (R&D Systems 355-BEC/CF) (P12643 283-396 limits assumed): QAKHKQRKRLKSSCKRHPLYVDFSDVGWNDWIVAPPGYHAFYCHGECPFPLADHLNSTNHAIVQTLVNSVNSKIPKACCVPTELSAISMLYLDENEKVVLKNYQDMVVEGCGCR

[7] = molecular target: Activin A (R&D Systems 338-AC) (UniProt P08476)
Chain of Activin A (R&D Systems 338-AC) (P08476 311-426 limits assumed): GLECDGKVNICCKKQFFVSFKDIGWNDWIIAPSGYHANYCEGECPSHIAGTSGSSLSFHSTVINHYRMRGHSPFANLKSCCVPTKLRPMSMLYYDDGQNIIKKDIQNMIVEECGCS

[8] = molecular target: TGF-beta2 (Peprotech, Inc. 100-35) (UniProt P61812)
Chain of TGF-beta2 (Peprotech, Inc. 100-35) (P61812 303-414 limits assumed): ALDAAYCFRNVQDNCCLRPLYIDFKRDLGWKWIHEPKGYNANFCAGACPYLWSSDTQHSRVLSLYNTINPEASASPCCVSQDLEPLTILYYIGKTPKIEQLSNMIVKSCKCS

[9] = molecular target: IGF-1 (R&D Systems 291-G1) (UniProt P05019)
Chain of IGF-1 (R&D Systems 291-G1) (P05019 49-118 limits assumed): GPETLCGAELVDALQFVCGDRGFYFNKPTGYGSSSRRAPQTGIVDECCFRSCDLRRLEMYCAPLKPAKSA

[10] = molecular target: BMP-7 (R&D Systems 354-BP) (UniProt P18075)
Chain of BMP-7 (R&D Systems 354-BP) (P18075 293-431 limits assumed): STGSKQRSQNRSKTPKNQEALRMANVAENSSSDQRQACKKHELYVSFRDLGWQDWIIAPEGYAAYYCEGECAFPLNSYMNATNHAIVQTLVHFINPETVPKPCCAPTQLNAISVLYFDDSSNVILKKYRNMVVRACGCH

[11] = molecular target: TGF-alpha (R&D Systems 239-A) (UniProt P01135)
Chain of TGF-alpha (R&D Systems 239-A) (P01135 40-89 limits assumed): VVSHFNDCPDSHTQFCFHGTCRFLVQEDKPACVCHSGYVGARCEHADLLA

[12] = molecular target: recombinant mouse myostatin (R&D systems, Cat. #788-G8/CF, carrier-free) (mouse) (UniProt O08689)
Chain of recombinant mouse myostatin (R&D systems, Cat. #788-G8/CF, carrier-free) (mouse) (O08689 268-376): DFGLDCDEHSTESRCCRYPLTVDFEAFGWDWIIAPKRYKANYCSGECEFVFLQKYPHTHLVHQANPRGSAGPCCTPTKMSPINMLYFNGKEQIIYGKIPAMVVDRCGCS

Chain of Activin B (R&D Systems 659-AB) (P09529 293-407 limits assumed): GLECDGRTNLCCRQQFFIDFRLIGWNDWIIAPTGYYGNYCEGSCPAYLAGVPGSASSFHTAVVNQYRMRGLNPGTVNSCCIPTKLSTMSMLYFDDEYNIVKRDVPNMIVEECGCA
Chain of TGF-beta1 (Peprotech, Inc. 100-21R) (P01137 279-390 limits assumed): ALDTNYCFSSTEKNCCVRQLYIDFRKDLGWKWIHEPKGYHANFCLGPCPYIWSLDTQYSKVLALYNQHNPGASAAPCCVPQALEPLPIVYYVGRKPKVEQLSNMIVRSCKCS
Chain of BMP-6 (R&D Systems 507-BP) (P22004 382-513 limits assumed): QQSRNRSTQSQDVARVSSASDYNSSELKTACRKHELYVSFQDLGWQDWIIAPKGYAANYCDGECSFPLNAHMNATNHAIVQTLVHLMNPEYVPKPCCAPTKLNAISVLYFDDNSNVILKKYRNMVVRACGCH
Chain of BMP-5 (R&D Systems 615-BM) (P22003 317-454 limits assumed): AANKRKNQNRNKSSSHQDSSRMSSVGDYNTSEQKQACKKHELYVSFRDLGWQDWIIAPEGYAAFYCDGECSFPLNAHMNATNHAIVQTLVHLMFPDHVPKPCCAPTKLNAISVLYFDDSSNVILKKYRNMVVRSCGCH

absorbance at 490 nm [1]: 0.0745 OD 490 nm
absorbance at 490 nm [2]: 0.038 OD 490 nm
absorbance at 490 nm [3]: 0.0425 OD 490 nm
absorbance at 490 nm [4]: 0.0485 OD 490 nm
absorbance at 490 nm [5]: 2.62 OD 490 nm
absorbance at 490 nm [6]: 0.0525 OD 490 nm
absorbance at 490 nm [7]: 0.049 OD 490 nm
absorbance at 490 nm [8]: 0.0525 OD 490 nm
absorbance at 490 nm [9]: 0.045 OD 490 nm
absorbance at 490 nm [10]: 0.042 OD 490 nm
absorbance at 490 nm [11]: 0.0445 OD 490 nm
absorbance at 490 nm [12]: 2.94 OD 490 nm
Substance: polyclonal anti-myostatin antibody (R&D Systems, catalog #AF788)
